Reference: patent publication US20260137779A1

Key:
[1] = target: human CD3 on T (Jurkat) cells (human) (UniProt P07766); assay: flow cytometry; PerCP-anti-hCD3e (OKT3) staining of Jurkat cells; supernatant of GFP-transfected 293T cells (same control values as in paragraph 403)
[2] = target: human CD3 on T (Jurkat) cells (human) (UniProt P07766); assay: flow cytometry; PerCP-anti-hCD3e (OKT3) staining of Jurkat cells; supernatant of vector #1323, which lacks a secretion peptide (dimert not secreted)
[3] = target: human CD3 on T (Jurkat) cells (human) (UniProt P07766); assay: flow cytometry; PerCP-anti-hCD3e (OKT3) staining of Jurkat cells; media alone, no competitor (same control values as in paragraph 403)
[4] = target: human CD3 on T (Jurkat) cells (human) (UniProt P07766); assay: flow cytometry; PerCP-anti-hCD3e (OKT3) staining of Jurkat cells; media alone, no competitor
[5] = target: human CD3 on T (Jurkat) cells (human) (UniProt P07766); assay: flow cytometry; PerCP-anti-hCD3e (OKT3) staining of Jurkat cells; supernatant of vector #1104, which lacks a secretion peptide (dimert not secreted)
[6] = target: human CD3 on T (Jurkat) cells (human) (UniProt P07766); assay: flow cytometry; PerCP-anti-hCD3e (OKT3) staining of Jurkat cells; supernatant of untransfected 293T cells, no competitor
[7] = target: human CD3 on T (Jurkat) cells (human) (UniProt P07766); assay: flow cytometry; PerCP-anti-hCD3e (OKT3) staining of Jurkat cells; supernatant of GFP-transfected 293T cells, no competitor
[8] = target: human CD3 on T (Jurkat) cells (human) (UniProt P07766); assay: flow cytometry; PerCP-anti-hCD3e (OKT3) staining of Jurkat cells; supernatant of untransfected 293T cells (same control values as in paragraph 403)

% CD3 positive (Q2+Q3) [1]: 78.7% | % CD3 positive (Q2+Q3) [2]: 79.4% | % CD3 positive (Q2+Q3) [3]: 77.6% | % CD3 positive (Q2+Q3) [4]: 77.6% | % CD3 positive (Q2+Q3) [5]: 77.7% | % CD3 positive (Q2+Q3) [6]: 79.2% | % CD3 positive (Q2+Q3) [7]: 78.7% | % CD3 positive (Q2+Q3) [8]: 79.2%
Substance: PerCP-anti-hCD3e antibody (#OKT3)
